In publication PMC3314614, “The Tandem CARDs of NOD2: Intramolecular Interactions and Recognition of RIP2” (PLoS ONE, 2012):

What was measured:
[1] = target: Pop1 PYD (Homo sapiens) (UniProt Q8WXC3); conditions: cited from earlier work
[2] = target: NOD2-CARDb (isolated) (human) (UniProt Q9HC29); assay: ITC; CARDa in the syringe, CARDb in the cell; 30°C; 50 mM Tris-HCl, 100 mM NaCl, 2 mM DTT, pH 7.5; one-site model
[3] = target: NOD2-CARDb (isolated) (human) (UniProt Q9HC29); assay: ITC; CARDa in the syringe, CARDb in the cell; 30°C; 50 mM Tris-HCl, 500 mM NaCl, 2 mM DTT, pH 7.5
[4] = target: NOD2-CARDb (isolated) (human) (UniProt Q9HC29); assay: ITC; CARDa in the syringe, CARDb in the cell; 30°C; 50 mM Tris-HCl, 250 mM NaCl, 2 mM DTT, pH 7.5
[5] = target: NOD2-CARDb (isolated) (human) (UniProt Q9HC29); assay: ITC; CARDa in the syringe, CARDb in the cell; 25°C; 50 mM Tris-HCl, 100 mM NaCl, 2 mM DTT, pH 7.5; one-site model
[6] = target: NOD2-CARDb (isolated) (human) (UniProt Q9HC29); assay: ITC; CARDa in the syringe, CARDb in the cell; 30°C; 50 mM Tris-HCl, 50 mM NaCl, 2 mM DTT, pH 7.5
[7] = target: NOD2-CARDb (isolated) (human) (UniProt Q9HC29); assay: ITC; CARDa in the syringe, CARDb in the cell; 30°C; 50 mM Tris-HCl, 1000 mM NaCl, 2 mM DTT, pH 7.5
[8] = target: NOD2-CARDb (isolated) (human) (UniProt Q9HC29); assay: ITC; CARDa in the syringe, CARDb in the cell; 18°C; 50 mM Tris-HCl, 100 mM NaCl, 2 mM DTT, pH 7.5; one-site model
[9] = target: NOD2-CARDb (isolated) (human) (UniProt Q9HC29); assay: ITC; CARDa in the syringe, CARDb in the cell; 25°C; 50 mM Tris-HCl, 100 mM NaCl, 2 mM DTT, pH 7.5; one-site model; remark: listed apart in the source
[10] = target: NOD2-CARDb (isolated) (human) (UniProt Q9HC29); assay: AUC; sedimentation velocity; individual samples and a 1:1 mixture of CARDa and CARDb; optical density 0.5 at 280 nm; SedFit
[11] = target: Tube DD (Drosophila melanogaster) (UniProt P22812); conditions: cited from earlier work
[12] = target: caspase-1 CARD (Homo sapiens) (UniProt P29466); conditions: cited from earlier work
[13] = target: T1, procaspase-9 CARD (UniProt P55211 1-92); assay: ITC; data not shown; at different temperatures; conditions: both partners purified
T1 construct: procaspase-9, CARD
T1 sequence (looked up): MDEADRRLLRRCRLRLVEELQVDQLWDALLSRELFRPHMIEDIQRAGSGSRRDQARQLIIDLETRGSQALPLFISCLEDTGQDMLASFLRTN

Chain of Tube DD (Drosophila melanogaster) (P22812 27-152): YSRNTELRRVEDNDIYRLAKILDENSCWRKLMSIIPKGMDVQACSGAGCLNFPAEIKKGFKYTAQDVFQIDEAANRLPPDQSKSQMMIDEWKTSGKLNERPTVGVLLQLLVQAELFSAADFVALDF
Chain of caspase-1 CARD (Homo sapiens) (P29466 1-94): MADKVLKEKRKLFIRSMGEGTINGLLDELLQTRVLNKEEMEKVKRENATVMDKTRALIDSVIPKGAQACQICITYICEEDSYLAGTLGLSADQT
Chain of Pop1 PYD (Homo sapiens) (Q8WXC3 whole entry): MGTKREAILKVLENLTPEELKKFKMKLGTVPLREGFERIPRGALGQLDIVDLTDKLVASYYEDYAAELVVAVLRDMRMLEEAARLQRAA

## ASC PYD (from UniProt Q9ULZ3)
[1]
  Kd: 4000 nM

## NOD2-CARDa (isolated, wild type) (from UniProt Q9HC29 28-119) (domain or fragment)
[2]
  Kd: 1410 nM
  dH: -7.4 kcal/mol
  stoichiometry N: 0.91
[3]
  Kd: 6250 nM
  dH: -4.8 kcal/mol
  stoichiometry N: 0.85
[4]
  Kd: 2990 nM
  dH: -5.5 kcal/mol
  stoichiometry N: 0.99
[5]
  Kd: 880 nM
  dH: -4.7 kcal/mol
  stoichiometry N: 1.03
[6]
  Kd: 1090 nM
  dH: -9 kcal/mol
  stoichiometry N: 0.61
[7]
  Kd: 7140 nM
  dH: -2.6 kcal/mol
  stoichiometry N: 0.78
[8]
  Kd: 1080 nM
  dH: -2 kcal/mol
  stoichiometry N: 0.84
[9]
  Kd: 1100 nM
[10]
  stoichiometry N: 1

## NOD2-CARDa E69K (isolated) (from UniProt Q9HC29 28-119) (domain or fragment)
[5]
  Kd: 720 nM
  dH: -3.8 kcal/mol
  stoichiometry N: 0.94

## NOD2-CARDa E72K (isolated) (from UniProt Q9HC29 28-119) (domain or fragment)
[5]
  Kd: 330 nM
  dH: -5.2 kcal/mol
  stoichiometry N: 0.81

## NOD2-CARDa R86A (isolated) (from UniProt Q9HC29 28-119) (domain or fragment)
[5]
  Kd: 810 nM
  dH: -4.8 kcal/mol
  stoichiometry N: 0.91

## Pelle DD (from UniProt Q05652)
[11]
  Kd: 500 nM

## RIP2 CARD (from UniProt O43353)
[12]
  Kd: 1400 nM

B1: Apaf-1 CARD (domain or fragment, UniProt O14727 1-90, looked up)
chain: MDAKARNCLLQHREALEKDIKTSYIMDHMISDGFLTISEEEKVRNEPTQQQRAAMLIKMILKKDNDSYVSFYNALLHEGYKDLAALLHDG
notes: Apaf-1, CARD
[13]
  Kd: 1000 to 4000 nM
